# B1: p28 (azurin fragment, Cys-p28) 50-77 (peptide)
# chain: TVNLSHPGNLPKNVMGHNWVLSTAADMQ
# Target: p53 DBD 94-288 (Homo sapiens, UniProt P04637)
# Test: atomic force spectroscopy
# Chain of p53 DBD 94-288 (P04637 94-288): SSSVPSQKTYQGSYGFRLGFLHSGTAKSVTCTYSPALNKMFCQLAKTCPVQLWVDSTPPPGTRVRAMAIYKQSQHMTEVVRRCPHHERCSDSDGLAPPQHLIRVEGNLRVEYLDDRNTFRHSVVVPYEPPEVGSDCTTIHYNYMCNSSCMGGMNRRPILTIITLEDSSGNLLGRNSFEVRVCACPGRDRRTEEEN
binder,measurement,value
B1,Kd,630 nM
